Among the data in PMC12871931 (2025) are Kd values, retold here.

As a reminder, the Kd is a measure of binding affinity in units of concentration.

Holding throughout (test): FP
In experiment [1] the target is importin α2 (IMPα2), Arabidopsis thaliana, recombinant (Arabidopsis thaliana, UniProt F4JL11 1-535).
Experiment [2] concerns the target importin α3 (IMPα3), Arabidopsis thaliana, recombinant (Arabidopsis thaliana, UniProt O04294 1-531).
In experiment [3] the target is importin α1 (IMPα1), Arabidopsis thaliana, recombinant (Arabidopsis thaliana, UniProt Q96321 1-532).

Ends that are not written are not given here. * marks the point of attachment. 5‑TAMRA = 5-carboxytetramethylrhodamine, N-terminal label, CN(C)c1ccc2c(-c3ccc(C(=O)*)cc3C(=O)[O-])c3ccc(N(C)C)cc3[o+]c2c1

Chain of importin α1 (IMPα1), Arabidopsis thaliana, recombinant (Q96321 whole entry): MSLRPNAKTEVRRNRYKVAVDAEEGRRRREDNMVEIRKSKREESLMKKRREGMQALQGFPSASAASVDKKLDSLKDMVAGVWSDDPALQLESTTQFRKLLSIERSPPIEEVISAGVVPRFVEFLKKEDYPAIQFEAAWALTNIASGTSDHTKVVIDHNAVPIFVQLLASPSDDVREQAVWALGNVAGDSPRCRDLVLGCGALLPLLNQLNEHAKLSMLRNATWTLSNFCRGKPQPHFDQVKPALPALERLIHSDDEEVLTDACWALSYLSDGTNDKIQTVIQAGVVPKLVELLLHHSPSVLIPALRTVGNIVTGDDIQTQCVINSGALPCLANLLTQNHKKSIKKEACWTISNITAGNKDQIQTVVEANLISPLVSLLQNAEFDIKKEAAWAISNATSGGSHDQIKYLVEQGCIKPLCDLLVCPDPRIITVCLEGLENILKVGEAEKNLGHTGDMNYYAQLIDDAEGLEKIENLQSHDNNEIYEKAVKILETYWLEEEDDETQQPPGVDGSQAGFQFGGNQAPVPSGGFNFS
Chain of importin α3 (IMPα3), Arabidopsis thaliana, recombinant (O04294 whole entry): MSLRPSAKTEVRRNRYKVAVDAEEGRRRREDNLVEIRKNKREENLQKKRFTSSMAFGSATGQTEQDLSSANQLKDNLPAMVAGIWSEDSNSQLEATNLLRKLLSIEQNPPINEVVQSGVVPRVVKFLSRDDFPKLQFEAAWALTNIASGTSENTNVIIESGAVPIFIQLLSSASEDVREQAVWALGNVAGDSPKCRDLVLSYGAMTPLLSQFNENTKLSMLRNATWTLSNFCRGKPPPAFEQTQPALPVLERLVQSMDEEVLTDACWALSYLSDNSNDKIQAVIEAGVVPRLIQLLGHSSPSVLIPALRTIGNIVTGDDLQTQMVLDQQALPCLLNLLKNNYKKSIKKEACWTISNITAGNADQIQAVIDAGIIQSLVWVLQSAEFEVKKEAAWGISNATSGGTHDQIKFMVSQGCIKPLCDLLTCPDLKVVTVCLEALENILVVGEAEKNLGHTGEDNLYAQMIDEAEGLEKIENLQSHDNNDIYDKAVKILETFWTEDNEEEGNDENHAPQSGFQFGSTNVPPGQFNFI
Chain of importin α2 (IMPα2), Arabidopsis thaliana, recombinant (F4JL11 whole entry): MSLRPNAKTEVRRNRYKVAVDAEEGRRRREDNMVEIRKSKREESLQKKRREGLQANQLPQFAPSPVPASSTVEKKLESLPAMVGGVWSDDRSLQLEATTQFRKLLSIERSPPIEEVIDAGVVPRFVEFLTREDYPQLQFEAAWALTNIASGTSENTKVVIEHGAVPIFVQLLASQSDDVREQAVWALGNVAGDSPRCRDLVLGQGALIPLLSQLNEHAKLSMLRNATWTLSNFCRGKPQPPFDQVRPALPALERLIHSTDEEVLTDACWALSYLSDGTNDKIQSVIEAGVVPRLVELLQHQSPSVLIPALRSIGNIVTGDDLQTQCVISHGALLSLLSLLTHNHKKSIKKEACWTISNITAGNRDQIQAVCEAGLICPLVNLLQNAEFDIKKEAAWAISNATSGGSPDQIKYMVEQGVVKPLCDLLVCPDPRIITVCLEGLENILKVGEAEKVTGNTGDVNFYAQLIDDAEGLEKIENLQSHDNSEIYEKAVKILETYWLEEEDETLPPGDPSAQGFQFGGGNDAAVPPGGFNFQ

B1: TAMRA‐NOP‐1 (EIN2 NLS peptide, N‐terminally labeled with 5‐TAMRA) (peptide)
peptide: {5‑TAMRA}-LKRYKRRL
With B1, the Kd in experiment [1] was 5.8 µM; in experiment [2], 5.4 µM; in experiment [3] it was 4.6 µM.
